Kd data for four substances are collected here from publication PMC5356539.

Holding throughout (experiment): plate binding assay (luminescent)
Series [1] relates to poly-ornithine. Conditions: miRNA species not given; 3'-biotinylated cytidine (bis)phosphate ligated; ELISA plate-immobilized protein, BSA block; PBS with or without 0.5 mM MgCl2, or HBSS with 1.26 mM Ca2+ and 0.9 mM Mg2+; neutral pH; 2 h at 37 C or overnight.
Series [2] deals with AGO2 full-length (human). The settings on record: Ca2+ and Mg2+; 3'-biotinylated cytidine (bis)phosphate ligated; ELISA plate-immobilized protein, BSA block; PBS with or without 0.5 mM MgCl2, or HBSS with 1.26 mM Ca2+ and 0.9 mM Mg2+; neutral pH; 2 h at 37 C or overnight ….
Series [3] addresses sNRP1 (human) (UniProt O14786). Conditions: 3'-biotinylated cytidine (bis)phosphate ligated, ELISA plate-immobilized protein, BSA block, PBS with or without 0.5 mM MgCl2, or HBSS with 1.26 mM Ca2+ and 0.9 mM Mg2+, neutral pH, 2 h at 37 C or overnight ….
Series [4] deals with NRP1-Fc (rat). The settings on record: 3'-biotinylated cytidine (bis)phosphate ligated; ELISA plate-immobilized protein, BSA block; PBS with or without 0.5 mM MgCl2, or HBSS with 1.26 mM Ca2+ and 0.9 mM Mg2+; neutral pH; 2 h at 37 C or overnight ….

Values joined by “and” are separate entries in the source; they are usually repeats but may differ in a detail not shown here. Equal values may be shown once.

sNRP1 (human), sequence (O14786 22-640): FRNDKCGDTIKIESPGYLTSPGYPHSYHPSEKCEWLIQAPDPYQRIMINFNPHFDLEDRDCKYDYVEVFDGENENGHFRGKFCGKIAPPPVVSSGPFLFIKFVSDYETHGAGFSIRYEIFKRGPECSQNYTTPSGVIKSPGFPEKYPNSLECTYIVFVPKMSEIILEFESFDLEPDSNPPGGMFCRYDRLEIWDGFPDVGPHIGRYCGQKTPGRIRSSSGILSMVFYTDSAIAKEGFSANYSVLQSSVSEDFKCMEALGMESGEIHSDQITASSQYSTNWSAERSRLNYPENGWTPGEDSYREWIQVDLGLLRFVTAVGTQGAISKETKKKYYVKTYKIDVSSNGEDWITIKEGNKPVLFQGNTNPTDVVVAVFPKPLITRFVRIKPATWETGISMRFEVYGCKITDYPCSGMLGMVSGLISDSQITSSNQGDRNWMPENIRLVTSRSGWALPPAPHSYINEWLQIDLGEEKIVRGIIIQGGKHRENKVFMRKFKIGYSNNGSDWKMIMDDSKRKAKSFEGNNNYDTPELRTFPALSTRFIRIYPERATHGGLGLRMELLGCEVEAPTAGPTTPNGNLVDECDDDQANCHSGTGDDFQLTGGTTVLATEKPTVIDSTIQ

Take miR-20a: the Kd in series [1] is 6.67 nM; in series [2] it was 7.27 nM.

As for miR-138, the Kd in series [3] (0.9 mM Mg2+, 1.2 mM Ca2+ (1.26 in Methods)) worked out at 0.772 nM; in series [3], 0.348 nM.

For the substance miR-331, in series [4], the Kd came out at 0.911 nM.

Take miR-422: the Kd in series [3] was 0.344 nM and 0.138 nM.

As usually defined, the Kd is a measure of binding affinity in units of concentration. A low value points to tighter binding.
